Patent publication US20170080108A1 (DNARX, published 2017)

B1: recombinant Rituximab protein (antibody, V domains shown)
VH: QVQLQQPGAELVKPGASVKMSCKASGYTFTSYNMHWVKQTPGRGLEWIGAIYPGNGDTSYNQKFKGKATLTADKSSSTAYMQLSSLTSEDSAVYYCARSTYYGGDWYFNVWGAGTTVTVSA
VL: QIVLSQSPAILSASPGEKVTMTCRASSSVSYIHWFQQKPGSSPKPWIYATSNLASGVPVRFSGSGSGTSYSLTISRVEAEDAATYYCQQWTSNPPTFGGGTKLEIK

What was measured:
[1] = molecular target: CD20 on human Raji B cells (human) (UniProt P11836); assay: flow cytometry on Raji cells, anti-human IgG-PE detection
[2] = molecular target: T1, CD20 on human Raji B cells (human, UniProt P11836 1-297); assay: as above
T1 construct: whole, on cells; The target is presented on Raji cells; also called CD20+ human B lymphoma (Raji) cells; CD-20+ human Raji B cells
T1 sequence (looked up): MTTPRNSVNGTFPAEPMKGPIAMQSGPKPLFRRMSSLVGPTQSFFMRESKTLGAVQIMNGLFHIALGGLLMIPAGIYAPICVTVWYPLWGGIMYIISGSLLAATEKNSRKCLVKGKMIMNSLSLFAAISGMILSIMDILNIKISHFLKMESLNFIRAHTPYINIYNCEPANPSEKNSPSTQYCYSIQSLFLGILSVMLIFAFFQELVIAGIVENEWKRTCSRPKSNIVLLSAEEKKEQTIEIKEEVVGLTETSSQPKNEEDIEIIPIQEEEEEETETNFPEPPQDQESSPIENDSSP

Molecule | Mean Fluorescence Intensity [1] | fluorescence intensity, fold over background [1] | fluorescence intensity, fold over background [2]
Rituximab present in mouse serum after injection of a dual cassette, single plasmid Rituximab DNA vector (antibody) | 3530 | > 10 fold | –
B1 | – | – | > 10 fold
